Measurements from US20190169308A1 (ALLIGATOR BIOSCIENCE, published 2019).
Numbering of substitutions follows the chain as printed.

B1: 1200/1201 (antibody, V domains shown)
VH: EVQLLESGGGLVQPGGSLRLSCAASGFTFSSYAMSWVRQAPGKGLEWVSGISGGGGGTYYADSVKGRFTISRDNSKNTLYLQMNSLRAEDTAVYYCARDVAYFDYWGQGTLVTVSS
VL: DIQMTQSPSSLSASVGDRVTITCRASQSISSYLNWYQQKPGKAPKLLIYAASSLQSGVPSRFSGSGSGTDFTLTISSLQPEDFATYYCQQYYIPHTFGQGTKLEIK
B2: 1620/1621 (antibody, V domains shown)
VH: EVQLLESGGGLVQPGGSLRLSCAASGFTFSGYYMYWVRQAPGKGLEWVSGISSSGSYTYYADSVKGRFTISRDNSKNTLYLQMNSLRAEDTAVYYCARSVGPYFDYWGQGTLVTVSS
VL: B1 VL with Y91G, Y92V, I93G, H95Y
B3: 1204/1205 (antibody, V domains shown)
VH: EVQLLESGGGLVQPGGSLRLSCAASGFTFSSYYMGWVRQAPGKGLEWVSGIGSYYGYTGYADSVKGRFTISRDNSKNTLYLQMNSLRAEDTAVYYCARAYYDYNYYYAYFDYWGQGTLVTVSS
VL: DIQMTQSPSSLSASVGDRVTITCRASQSISSYLNWYQQKPGKAPKLLIYAASSLQSGVPSRFSGSGSGTDFTLTISSLQPEDFATYYCQQSVPHYPFTFGQGTKLEIK
B4: 1626/1627 (antibody, V domains shown)
VH: EVQLLESGGGLVQPGGSLRLSCAASGFTFGGYSMYWVRQAPGKGLEWVSSIGGYYYSTYYADSVKGRFTISRDNSKNTLYLQMNSLRAEDTAVYYCARSYYGSIDYWGQGTLVTVSS
VL: B3 VL with S91G, V92T, P93G, H94Y, Y95G, F97L

Target: T1, recombinant human CD137-Fc (R&D #838-4B) (human, UniProt Q07011 24-186)
T1 construct: bought; also called CD137 (R&D #838-4B); not shown: Fc part, bought reagent, not described
Assay: ELISA, coated CD137-Fc
Method: Binding of CD137 antibodies to recombinant human CD137 was determined by sandwich ELISA. Briefly, ELISA plates (Greiner #655074) coated with recombinant human CD137-Fc (R&D #838-4B) were incubated with serial dilutions of the various CD137 antibodies to be investigated. CD137 antibodies were detected using HRP-conjugated goat-anti-human kappa light chain (AbD Serotec #STAR127P) and developed with SuperSignal ELISA Pico Chemiluminescent substrate (Pierce #37069). EC50 values of the various antibodies were determined in 2-6 separate experiments.

T1 sequence (Q07011 24-186 limits assumed): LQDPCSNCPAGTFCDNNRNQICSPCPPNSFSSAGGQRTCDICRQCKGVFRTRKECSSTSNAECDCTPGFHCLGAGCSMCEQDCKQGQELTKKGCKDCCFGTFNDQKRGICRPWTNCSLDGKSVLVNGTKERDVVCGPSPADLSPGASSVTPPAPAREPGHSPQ

Row | Binder | EC50 [nM]
1 | B1 | 0.39

Target: T2, human CD137 on transfected CHO cells (human, UniProt Q07011 24-186; P25942 194-277, limits assumed)
T2 construct: extracellular domain;domain: transmembrane and intracellular part; also called CHO-huCD137; CHOhCD137
Assay: flow cytometry, CHO-huCD137; 95% CI of EC50
Method: Binding and EC50 was determined using flow cytometric analysis of CHO cells transfected with human CD137, cynomolgus CD137 or empty vector. The extracellular part of human or cynomolgus CD137 was fused to the transmembrane and intracellular part of human CD40 and cloned into pcDNA3.1. The vector was subsequently stably transfected into CHO cells. […] CD137-transfected and empty vector-transfected cells were incubated with CD137 antibodies for at least 1h at 4° C. to saturate the binding. In order to minimize antibody internalization, 0.05% sodium azide was used in the incubation buffer and all work was performed on ice. […] Directly after staining the cells were fixed with a paraformaldehyde solution (10x concentrate BD CellFIX, BD biosciences #340181). Cells were analyzed by flow cytometry using FACSVerse (BD Biosciences). The median fluorescence intensity (MFI) for each sample was determined and the dose response data was analysed using Graph Pad Prism.
MFI data was normalized for each antibody, where 0% is defined as the lowest value and 100% is the highest value in the dose titration for each antibody.

T2 sequence (Q07011 other isoform, or with tags, fused parts or gaps limits assumed): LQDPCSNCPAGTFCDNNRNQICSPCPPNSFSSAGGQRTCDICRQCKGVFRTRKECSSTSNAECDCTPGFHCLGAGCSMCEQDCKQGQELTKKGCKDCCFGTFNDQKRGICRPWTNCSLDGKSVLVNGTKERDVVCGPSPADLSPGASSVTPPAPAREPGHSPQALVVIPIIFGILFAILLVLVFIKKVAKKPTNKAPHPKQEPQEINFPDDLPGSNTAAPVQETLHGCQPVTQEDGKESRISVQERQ

Row | Binder | EC50 [µg/mL]
2 | B1 | 0.2 to 0.36

Target: T3, CD40-Fc (Ancell #504-820) (human, UniProt P25942 21-193)
T3 construct: not shown: Fc part, bought reagent, not described
Assay: ELISA, coated CD40-Fc
Method: (§1) ELISA plates (Greiner #655074) were coated with 50 μl/well of recombinant human OX40 (R&D #1493-CD), CD40-Fc (Ancell #504-820) or CD137 (R&D #838-4B) diluted to a final concentration of 0.5 μg/ml in PBS for 1h at 37° C. or overnight at 4° C. Plates were washed with PBS+0.05% TWEEN20 (PBST), followed by block with PBST+1% bovine serum albumin (BSA). Antibody samples were prepared as serial 1/10 dilutions from 10-0.01 μg/ml in PBST+1% BSA and incubated for 1 h in room temperature, followed by detection using a horse radish peroxidase-conjugated anti-human kappa light chain antibody (AbD Serotec #STAR127P) and developed using SuperSignal ELISA Pico Chemiluminescent substrate (Pierce ThermoScientific #37069).

T3 sequence (P25942 21-193 limits assumed): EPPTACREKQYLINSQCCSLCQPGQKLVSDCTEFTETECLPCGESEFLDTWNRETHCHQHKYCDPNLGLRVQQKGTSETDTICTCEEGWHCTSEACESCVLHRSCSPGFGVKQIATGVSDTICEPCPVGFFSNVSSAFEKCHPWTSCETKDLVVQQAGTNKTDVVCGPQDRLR

Row | Binder | binding result
3 | B1 | no binding (tested: 10 µg/ml)
4 | B2 | no binding (tested: 10 µg/ml)
5 | B3 | no binding (tested: 10 µg/ml)
6 | B4 | no binding (tested: 10 µg/ml)

Target: T4, full-length human CD137 construct 1030 (human, UniProt Q07011 24-255)
T4 construct: whole, on cells; on transfected FreeStyle 293-F cells; also called Full-length CD137
Assay: flow cytometry, 293-F cells with full-length CD137 (reference of the normalization)
Method: (§2) The ability of each antibody to bind to a panel of human/mouse CD137 chimeras expressed on the surface of transfected cells was analyzed by flow cytometry.
(§3) The chimeras were designed by exchanging domains or modules of the human CD137 with the corresponding mouse domain (FIG. 7). Genes of CD137 human/mouse chimeras were synthesized (GenScript) and constructs cloned into pcDNA3.1 vector (Invitrogen) and transiently transfected into FreeStyle 293-F cells (Invitrogen). The transfected cells were incubated with CD137 antibodies and control antibodies, followed by incubation with anti-human IgG-PE (Jackson Immunoresearch) for detection and analyzed with FACS Verse (BD Biosciences). Binding to the different chimeric constructs was calculated as relative MFI compared to the binding of the isotype control, followed by normalization to the full-length human CD137 construct to minimize the effect of affinity differences between individual antibodies.

T4 sequence (Q07011 24-255): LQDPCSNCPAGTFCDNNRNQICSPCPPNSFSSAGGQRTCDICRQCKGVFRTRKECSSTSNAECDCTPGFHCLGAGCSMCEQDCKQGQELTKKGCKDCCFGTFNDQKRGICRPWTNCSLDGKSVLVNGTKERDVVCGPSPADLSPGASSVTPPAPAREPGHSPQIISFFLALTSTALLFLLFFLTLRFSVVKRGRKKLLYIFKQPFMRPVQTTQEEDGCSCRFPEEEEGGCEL

Row | Binder | MFI/isotype control normalized to full-length human CD137
7 | B1 | 1

Target: T5, human/mouse CD137 chimera 1553
T5 construct: on transfected FreeStyle 293-F cells
Assay: flow cytometry, 293-F cells with CD137 chimera
Method: as §2, §3

Row | Binder | MFI/isotype control normalized to full-length human CD137
8 | B1 | 0.65
9 | B2 | 0.17
10 | B3 | 0.85
11 | B4 | 0.14

Target: T6, human/mouse CD137 chimera 1551
T6 construct: on transfected FreeStyle 293-F cells
Assay: flow cytometry, 293-F cells with CD137 chimera
Method: as §2, §3

Row | Binder | MFI/isotype control normalized to full-length human CD137
12 | B1 | 0.04
13 | B2 | 0.33
14 | B3 | 0.11
15 | B4 | 0.11

Target: T7, human/mouse CD137 chimera 1554
T7 construct: on transfected FreeStyle 293-F cells
Assay: flow cytometry, 293-F cells with CD137 chimera
Method: as §2, §3

Row | Binder | MFI/isotype control normalized to full-length human CD137
16 | B1 | 0.84
17 | B2 | 0.17
18 | B3 | 0.73
19 | B4 | 0.12

Target: T8, human/mouse CD137 chimera 1550
T8 construct: on transfected FreeStyle 293-F cells
Assay: flow cytometry, 293-F cells with CD137 chimera
Method: as §2, §3

Row | Binder | MFI/isotype control normalized to full-length human CD137
20 | B1 | 0.05
21 | B2 | 0.17
22 | B3 | 0.07
23 | B4 | 0.1

Target: T9, human/mouse CD137 chimera 1552
T9 construct: on transfected FreeStyle 293-F cells
Assay: flow cytometry, 293-F cells with CD137 chimera
Method: as §2, §3

Row | Binder | MFI/isotype control normalized to full-length human CD137
24 | B1 | 0.05
25 | B2 | 0.18
26 | B3 | 0.13
27 | B4 | 0.11

Target: T10, human/mouse CD137 chimera 1555
T10 construct: on transfected FreeStyle 293-F cells
Assay: flow cytometry, 293-F cells with CD137 chimera
Method: as §2, §3

Row | Binder | MFI/isotype control normalized to full-length human CD137
28 | B1 | 0.24
29 | B2 | 0.32
30 | B3 | 0.28
31 | B4 | 0.29

Target: T11, recombinant human OX40 (R&D #1493-CD) (human, UniProt P43489 29-216, limits assumed)
T11 sequence (looked up): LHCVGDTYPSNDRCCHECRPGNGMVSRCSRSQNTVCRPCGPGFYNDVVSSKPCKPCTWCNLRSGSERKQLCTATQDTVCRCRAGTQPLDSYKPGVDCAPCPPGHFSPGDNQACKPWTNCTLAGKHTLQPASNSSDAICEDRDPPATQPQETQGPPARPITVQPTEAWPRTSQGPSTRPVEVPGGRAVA
Assay: ELISA, coated OX40
Method: as §1

Row | Binder | binding result
32 | B1 | no binding (tested: 10 µg/ml)
33 | B2 | no binding (tested: 10 µg/ml)
34 | B3 | no binding (tested: 10 µg/ml)
35 | B4 | no binding (tested: 10 µg/ml)
